# In paper PMC12422735:
# Tested on: Δ40p53β (TS, purified)
# Assay: SPR
# Conditions: Hill slope fit; SPR: 25 mM HEPES pH 7.5, 200 mM NaCl, 0.5 mM TCEP, 0.005% Tween-20, 20 °C; pull-down: 50 mM HEPES pH 7.5, 200 mM NaCl, 0.1% Tween-20, 0.5 mM TCEP, 4 °C
substance,measurement,value
p21 RE 20 bp,binding signal (fold lower affinity than DBD-OD),280
